B1: PV: CD22-targeting IgG-based ADC, antibody conjugated with MMAE (conjugate, chains of the INN, looked up)
VH: EVQLVESGGGLVQPGGSLRLSCAASGYEFSRSWMNWVRQAPGKGLEWVGRIYPGDGDTNYSGKFKGRFTISADTSKNTAYLQMNSLRAEDTAVYYCARDGSSWDWYFDVWGQGTLVTVSS
VL: DIQMTQSPSSLSASVGDRVTITCRSSQSIVHSVGNTFLEWYQQKPGKAPKLLIYKVSNRFSGVPSRFSGSGSGTDFTLTISSLQPEDFATYYCFQGSQFPYTFGQGTKVEIK
modifications: vedotin (MMAE) payload
B2: Moxe: reference immunotoxin compared with LMIT-2 in FIG. 2B; not further defined in the text (antibody, chains of the INN, looked up, V domains shown)
VH: EVQLVESGGGLVKPGGSLKLSCAASGFAFSIYDMSWVRQTPEKCLEWVAYISSGGGTTYYPDTVKGRFTISRDNAKNTLYLQMSSLKSEDTAMYYCARHSGYGTHWGVLFAYWGQGTLVTVSA
VL: DIQMTQTTSSLSASLGDRVTISCRASQDISNYLNWYQQKPDGTVKLLIYYTSILHSGVPSRFSGSGSGTDYSLTISNLEQEDFATYFCQQGNTLPWTFGCGTKLEI
modifications: pasudotox (PE38 toxin fusion)
notes: not further defined in the text

Key:
many cell lines [1] = conditions: published activity of PV; cited from earlier work
many cell lines [2] = test: molar activity in vitro against many cell lines (FIG. 3B); assay type: cell-based; conditions: on average, PV from published activity
Experimental: FIG. 3: Activity of Duotoxins in vitro.
LMIT-2-DM1 was tested against various cell lines (FIG. 3A). […] Cells like DOHH-2 that are resistant to immunotoxins were sensitive to the LMIT-2-DM1. We have not found a cell line which is resistant to both, the PE and the DM1 in vitro. […] On average 3.6 DM1 molecules per LMIT-3 molecule were coupled. […] The activity of PV varies substantially over a 3-log concentration range. […] The activity is tested by plating the above described cell lines at 20,000 cells per well in a 96-well plate. The immunotoxin or duotoxin is added at indicated concentrations in a three-fold serial dilution, the cells incubated in a humidified incubator for 72 hours. The cells are then collected by centrifugation, stained with 7-AAD and Annexin V and cell death determined by flow cytometry. The concentration at which 50% of the cells are killed (IC50) reflects the activity of a drug against a cell and is determined from the flow cytometry data by non-linear regression analysis.

[3] = cytotoxicity of immunotoxins and blocking of LMIT-2 by LMIT-3 (FIG. 2B); assay type: cell-based

Row | Molecule | variation of activity over concentration range (many cell lines [1]) [log] | activity relative to LMIT-2 (less active) (many cell lines [2]) [logs] | activity of LMIT-2 compared with Moxe [3]
1 | B1 | 3 | 3 | –
2 | B2 | – | – | comparable activity
